Where no end group is shown, it is not given here. [ ]: non-standard residue; d: D form. Lys(Me3) = C[N+](C)(C)CCCC[C@H](N)C(=O)O; PEG = not defined here
T1: MBP-tagged cysteine-rich domain (566 aa-657 aa) of Tpb2p, MBP-Tpb2p-CRD (WT) (Tetrahymena thermophila, UniProt D2Z1K6 566-657)
T1 construct: Tpb2p (Tetrahymena piggyBac-like transposase 2), cysteine-rich domain, aa 566-657; amplified from a codon-optimized TPB2 coding region in pMAL-TPB2; Cloned in pMalC2X, which is expected to put MBP at the N-terminus (surmise); also called cysteine-rich domain of Tpb2p; source: E. coli BL21(DE3), purified (Amylose resin, maltose elution, dialysis)
T1 sequence (looked up): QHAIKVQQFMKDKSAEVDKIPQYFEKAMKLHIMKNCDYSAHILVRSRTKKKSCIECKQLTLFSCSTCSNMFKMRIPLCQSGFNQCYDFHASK


Biological target: T1, MBP-tagged cysteine-rich domain (566 …)
Assay: pull-down; biotin-tagged histone peptides (1 ug) immobilised on streptavidin Dynabeads, 1 ug MBP-Tpb2p-CRD added, overnight at 4°C; 10 mM Tris pH 7.5, 0.1 mM ZnSO4, 0.05% NP40, 250 mM NaCl; western blot with anti-MBP
Details: both partners purified

Binder | binding result
PRKQLASKAARKSAPATGGI-{PEG-biotin} (peptide, UniProt P69150 17-36, looked up, reading uncertain, histone H3, Tetrahymena, amino acids 16-35; also called unmodified peptide (16-35); source: synthetic peptide) [Tetrahymena histone H3 peptide, amino acids 16-35, unmodified, C-terminally biotinylated] | binds
PRKQLASKAAR[Lys(Me3)]SAPATGGI-{PEG-biotin} (peptide, UniProt P69150 17-36, looked up, reading uncertain, histone H3, Tetrahymena, amino acids 16-35; also called H3K27me3 peptide; source: synthetic peptide) | binds
ART[Lys(Me3)]QTARKSTGAKAPRKQ-{PEG-biotin} (peptide, UniProt P69150 2-20, looked up, reading uncertain, histone H3, Tetrahymena, amino acids 1-19; That the K4me3 peptide is the 1-19 peptide follows from the position of the residue; also called H3K4me3 peptide; source: synthetic peptide) | binds
ARTKQTARKSTGAKAPRKQ-{PEG-biotin} (peptide, UniProt P69150 2-20, looked up, reading uncertain, histone H3, Tetrahymena, amino acids 1-19; also called unmodified peptide (1-19); source: synthetic peptide) [Tetrahymena histone H3 peptide, amino acids 1-19, unmodified, C-terminally biotinylated] | binds
ARTKQTARKSTGAKAPRKQ (peptide, UniProt P69150 2-20, looked up, tri-methylated lysine 9; biotin at the C-terminus with a PEG linker, histone H3, Tetrahymena, amino acids 1-19; also called H3K9me3 peptide; source: synthetic peptide) | binds

From publication PMC3861120, “A Domesticated PiggyBac Transposase Interacts with Heterochromatin and Catalyzes Reproducible DNA Elimination in Tetrahymena” (PLoS Genetics, 2013)
